In the nanobody polyreactivity screen of Harvey et al. (2022):

Assay: yeast display, Sf9 membrane polyspecificity reagent, FACS + sequencing; frameworks hold sequencing errors
How it was run: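 Using colony PCR, genes from sorted yeast display clones were amplified, then sequenced on MiSeq at 2 × 250 and filtered by CDR length. The clones had been stained with 10% biotinylated, detergent-solubilized Sf9 membrane reagent for 1 hour at 4 °C and sorted by FACS into low and high (top ~1%) gates on anti-HA and streptavidin fluorescence. Polyreactivity labels come from the gate of origin.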

Sequence	polyreactivity (PSR sort gate)
QDQLVESGGGLVQAGGSLRLSCAASGSIFKHNDMGWYRQAPGKERELVAAISRSGGSTYYAHSVKGRFTISRDNAKNTVYLLMNSLKPEDTAVYYCNAGRRTARYGYWGQGTQVTVSS	high polyreactivity
QDQLVESGGGLVQAGGSLRLSCAASGSIFKINAMGWYRQATGKERELVATITWSTGTTYYADSVKGRFTISRDNAKNTVYLQMNSLKPEDTAVYYCATDGDSTKLDYWGQGTQVTVSS	low polyreactivity
QDQLVESGGGLVQAGGSLRLSCAASGSIFLYNAMGWYRQAPGKERELVADITSAGRTYYADSVKGRFTISRDNAKNTVYLQMNSLKPEDTAVYDCNKDYHYHFSWYGYWGQGTQVTVSS	low polyreactivity
QDQLVESGGGLVQAGGSLRLSCAASGSIFSGYAMGWYRQPPGKERELVAAISRRGTSTYYADSVKGRFTISRDNAKNTVYLQMNSLKPEDTAFYYCAATYGGRQSYGGFDYWGQGTQVTVSS	high polyreactivity
QDQLVESGGGLVQAGGSLRLSCAASGSIFSNNAMGWYRQAPGKERELVATITFSGGNTYYADSVKGRFTISRDNAKNTVYLQMNSLKPEDTAVYYCNADRYPVGTAREYDSWGQGTQVTVSS	low polyreactivity
QDQLVESGGGLVQAGGSLRLSCAASGSIFTSYAMGWYRQAPGKERELVAAITGGDSTNYADSVKGRFTISRDNAKNTVYLQMNSLKPEDTAVYYCNAADPNYFDRDTHYYWGQGTQVTVSS	low polyreactivity
QDQLVESGGGLVQAGGSLRLSCAASGSILGHYDMGWYRPAPGKERELVAAISWSGGSTYYADSVKGRFTISRDNAKNTVYLQMNSLKPEDTAVYYCNAAAILYTSAGSLYWYDYWGQGTQVTVSS	low polyreactivity
QDQLVESGGGLVQAGGSLRLSCAASGSISSKNAMGCYRQAPGKEREFVAVISGTGGSTYYSDSVKGRFTISRDNAKNTVYLQMNRLKPEDTAVYYCAAAGSSIVSYGYSWTYGYWGQGTQVTVSS	low polyreactivity
QDQLVESGGGLVQAGGSLRLSCAASGSNFAVYAMGWSRQAPGKERELVAAISYRGARTYYADSVKGRFTISRDNAKNTVYLQMNSLKPEDTAVYYCAAQGVTSPGVDSWGQGTQVTVSS	high polyreactivity
QDQLVESGGGLVQAGGSLRLSCAASGSTFEYYAMGWYRQAPGKERELVAAISSGPSTTYADSVKGRFTISRDNAKNTVYLQMNSLKPEDTAVYYCARRDGTTQALFGYDYWGQGTQVTVSS	low polyreactivity
QDQLVESGGGLVQAGGSLRLSCAASGSTFEYYAMGWYRQAPGKERELVAAITRRGGSTYYADSVKGRFTISRDNAKNTVYLQMNSLKPEDTAVYYCAAVPTQKSQRTHDYCGQGTQVTVSS	low polyreactivity
QDQLVESGGGLVQAGGSLRLSCAASGSTFGYYAMGWYRKAPGKERELVAAITSGASTNYADSVKGRFTISRDNAKNTVYLQMNSLKPEDTAVSYCAAGFQTRTPLNEFDYWGQGTQVTVSS	low polyreactivity
QDQLVESGGGLVQAGGSLRLSCAASGSTFGYYAMGWYRQAPGKERELVAAISWRGGTYYADSVKGRFTISRDNAKNTVYLQMNSLKPEDTAVYYCAADDYIVSRYRYGVRYGYWGQGTQVTVSS	high polyreactivity
QDQLVESGGGLVQAGGSLRLSCAASGSTFGYYVMGWYRQAPGKERELVAGISSSGGSTYYADSVKGRFTISRDNAKNTVYLQMNSLKPEDTAVYYCAAVRGTGTRRYDYWGQGTQVTVSS	high polyreactivity
QDQLVESGGGLVQAGGSLRLSCAASGSTFHWYVMGWYRQAPGKERELVAAISQSGGNTYYADSVKGRFTISRDNAKNTVYLQMNSLKPEVTAVFYCAADSVGVFNTTFFQFEYWGQGTQVTVSS	high polyreactivity
QDQLVESGGGLVQAGGSLRLSCAASGSTFLINAMGWYRQAPGKERELVAAISDSGGSTHYADSVKGRFTISRDNAKNTVYLEMNSLKPEDTAVYYCAATIPTTLILYGYWGQGTQVTVSS	low polyreactivity
QDQLVESGGGLVQAGGSLRLSCAASGSTFQDYAMGWYRQAPGKERELVAAITYSGGSTYYADSVKGRFTISRDIAKNTVYLQMNSLKPEDTAVYYCAAKDTTVFYYDDDYWGHGTQVTVSS	low polyreactivity
QDQLVESGGGLVQAGGSLRLSCAASGSTFRHYAMGWYRQAPGKERELVAVISWGGTSTYYADSVKGRFTISRDNAKNTVYLQMNSLKPEDTAVYYCNKAYFPIFKGYEMYYWGQGTQVTVSS	low polyreactivity
QDQLVESGGGLVQAGGSLRLSCAASGSTFSIYAMGWYRQATGKERELVAAIPYSGGSTYYADSVKGRFTISRDNAKNTVYLQMNSLKPEDTAVYYCAAEVYDSRWWYSGATDDYWGQGTQVTVSS	high polyreactivity
QDQLVESGGGLVQAGGSLRLSCAASGSTFSYNMGWYRQAPGKERELVARITRGGGSTYYADSVKGRFTISRDNAKNTVYLQMNSLKPEDTAVYYCAADRYFRYYYWGQGTQVTVSS	high polyreactivity
QDQLVESGGGLVQAGGSLRLSCAASGSTFSYYAMGWYRQATGKERELVASISTRGGSTYYADSVKGRFTISRDNAKNTVYLQMNSLKPEDTAVYYCAATIRPRGVARVDYWGQGTQVTVSS	high polyreactivity
QDQLVESGGGLVQAGGSLRLSCAASGSTFTRNSMGRYRQAPWKERELVAVISSRGGRTYYADSVKGRFTISRDNAKNSVYLPMNSLKPDDTAVYYCAARYVIPLGNTYDYWGQGTQVNVSS	high polyreactivity

Sequence	polyreactivity (PSR sort gate)
QDQLVESGGGLVQAGGSLRLSCAASGSTFTSNAMGWYRQAPGKERELVAAISFSDASTYYADSVKGRFTISRDNAKKTVYLQMNSLKPEDTAVYYCNADYPTTAYDYCGQGTQVTVSS	low polyreactivity
QDQLVESGGGLVQAGGSLRLSCAASGSTFYRYAMGRSRQAPGTERELVAAISWRGGSTYYADSVKGRFTISRDNAKNSVYLQMNSLKPEDTAVYYCNADWYPYDQMYYWGQGTQVTVSS	low polyreactivity
QDQLVESGGGLVQAGGSLRLSCAASGSTIFVYTMGWYRQAPGKERELVAAISGSGGSTSYADSVKGRFTISRDNAKNTVYLQMNSLKPEDTAVYYCAARRHVYLRGSTFEFYYWGQGTQVTVSS	high polyreactivity
QDQLVESGGGLVQAGGSLRLSCAASGSTLVKYAMGWYRQAPGKERELVARITLNGGRTYYADSVKGRFTISRDNAKNTVYLQMNSLKPVDTAVYYCAKSLPHSTSRDYWGQGTQVTLSS	low polyreactivity
QDQLVESGGGLVQAGGSLRLSCAASGSTLYMYAMGWYRQAPGKERELVAAISWSDDTTYYADSVKGRFTISRDNAKNTVYLQMNSLKPEDTAVYYCNAETYYGNSFGPFSYDYWGQGTQVTVSS	low polyreactivity
QDQLVESGGGLVQAGGSLRLSCAASGSTSYRYSMGWYRQAPGKEREFVAAISWSGGSTYYADSVKGRFTISRDTAKNTVYLQMNSLKPEDTAVYYCAAVSRRGSARFDYWGQGTQVTVSS	high polyreactivity
QDQLVESGGGLVQAGGSLRLSCAASGTIFDVYAMGWYIQAPGKERELVAAISYGGGSTYYADSVKGRFTISRDNAKNTVYLQINSLKPEDTAVYYCAADDDVYGLEYGYWGQGTQVTVSS	low polyreactivity
QDQLVESGGGLVQAGGSLRLSCAASVIIFEYYTMGWYRQAPGKERELVASITYDGDSTYYADSVKRRFTISRDNAKKTVYLQMNSQTPEDTAFYSCAADYYYVYSSYGHYYWGQGTQVTVSS	low polyreactivity
QDQLVESGGGLVQAGGSLRLSCADSGRIFCINAMGWYRQAPGKERELVAAINWSGGSTYYADSVKGRFTISRDNAKNTVYLQMNSLKPEDTAVYYCAAQKYKRVGYWGQGTQVTVSS	high polyreactivity
QDQLVESGGGLVQAGGSLRLSCASSGITIATNAMGWSRQAPGKERELVAAISWSGGSTYYADSVKGRFTISRDNAKNTVFLQMNSLKPEDTAVYYCATGYSVWYDYWGQGTQVTVSS	low polyreactivity
QDQLVESGGGLVQAGGSLRLSCASSGSTFVRYAMGWYRQAPGKERELVATISKSGGSTSYADSVKGRFTISRDNAKNTVYLQMNSLKPEDTAVYYCAADFLYIWAIFDYWGQGTQVTVSS	low polyreactivity
QDQLVESGGGLVQAGGSLRLSCDASGRIFWVYVMGWYRQAPGKERELVADITSIGGSTYYADSVKGRFTISRDNAKNTVYLQMNSLKPEDTAVYSCAADVDGYPYYQYKMGYWGQGTQVTVSS	low polyreactivity
QDQLVESGGGLVQAGGSLRLSCSASGRIFTRNTMGWYRQAPGKERELVAAITSRGGSTYYADSVKGRFTISRDNAKNTVYLQMNSLKPEDTAVYDCAADKPRSYYYWGQGTQVTVSS	high polyreactivity
QDQLVESGGGLVQAGGSLRLSCSASGRTFHRNAMGWYRQAPGKERESVAAITGDGRTNYADSVKGRFTISRDNAKNTVYLQMNSLKPEDNAVYYCAARFSYRSYDYWGQGTQVTVSS	low polyreactivity
QDQLVESGGGLVQAGGSLRLSSAASGLTLHGNAMGWYRHAPGKERELVATITSSGGSTFYADSVKGRFTLSRDNAKNTVYLKMNSMKPEDTAVYYCNADAPYSVDYYVRFDYWGQGTQVTVSS	low polyreactivity
QDQLVESGGGLVQAGGSLRLSSAASGSIFRGYAMGWYRQAPGKERELVAAITFSGGSTYADSVKGRFTISRDNAKITVYLQMNSLKPEDTAVYYCAAKRTGHNWFTVYPYYSWGQGTQVTVSS	low polyreactivity
QDQLVESGGGLVQAGGSLRLTCAASGSIFRYYVMGWYRQAPGKERELVAGISSSGGRTYYADSVKGRFTISRDNANNTVYLQMNSLKPEDTAVYYCNAVTSRRPYDYWGHGTQVTVSS	high polyreactivity
QDQLVESGGGLVQAGGSLRLTCAASGSIFSANVMGWYRQAPGKERELVAAIRRGGTTYYADSVKGRFTISRDNSKNTVYLQMNRLNPEDSAVYYCATDGIFGSYLRFEVAYDYWGQGTQVTVSS	low polyreactivity
QDQLVESGGGLVQAGGSLRLTCAASGSIIVRYAMGWYRQAPGKERELVASISKRGGSTYYADSVKGRFTISRDNAKNTVYLQMNSLKPEDTAVYYCAAVGYYLVKFDYWGQGTQVTVSS	high polyreactivity
QDQLVESGGGLVQAGGSLSLSCAASGSIFETYDMGWYRQAPGKERELVAAISLSGGSTYYADSVKGRFTISRDNAKNTVYLQMYSLKPEDTAVYYCASDTYYVSYGYYYWGLGTQVTVSS	low polyreactivity
QDQLVESGGGLVQAGRSLRLSCAASGRTFRTYTMGWYRQAPGKERELVAAISRGGSTNYADSVKGRFTISRDNEKNTVYLQMNSLKPEDTAVYYCNAKASFCSPYDYWGQGTQVTVSS	high polyreactivity
